Results on four molecules are retold here after patent US12497462 (IMMUNITYBIO, dated 2025).

Substitutions are numbered along the chain they refer to.

In test [1] the target is T1, Human CD26-Fc fusion protein (human).
T1 construct: also called CD26/beads
Put plainly: competition ELISA on coated CD26-Fc (5 µg/mL): ADA is varied and the blocked molecule is biotinylated CD26Ab-01D at 5 nM, read with SAHRP/ABTS. In general terms: In an ELISA, binding on a coated surface is turned into a signal by an enzyme label.

Test [2] has as its target T1, Human CD26-Fc fusion protein. Put plainly: ELISA, CD26-Fc coated, purified IgG1 kappa antibody in 3-fold steps, goat anti-human kappa-HRP/ABTS.
In test [3] the target is T2, Human CD26 on transfected CHO cells (human, UniProt P27487 1-766).
T2 construct: whole, on cells; also called CHO26; CD26 positive CHO cells
T2 sequence (P27487 whole entry): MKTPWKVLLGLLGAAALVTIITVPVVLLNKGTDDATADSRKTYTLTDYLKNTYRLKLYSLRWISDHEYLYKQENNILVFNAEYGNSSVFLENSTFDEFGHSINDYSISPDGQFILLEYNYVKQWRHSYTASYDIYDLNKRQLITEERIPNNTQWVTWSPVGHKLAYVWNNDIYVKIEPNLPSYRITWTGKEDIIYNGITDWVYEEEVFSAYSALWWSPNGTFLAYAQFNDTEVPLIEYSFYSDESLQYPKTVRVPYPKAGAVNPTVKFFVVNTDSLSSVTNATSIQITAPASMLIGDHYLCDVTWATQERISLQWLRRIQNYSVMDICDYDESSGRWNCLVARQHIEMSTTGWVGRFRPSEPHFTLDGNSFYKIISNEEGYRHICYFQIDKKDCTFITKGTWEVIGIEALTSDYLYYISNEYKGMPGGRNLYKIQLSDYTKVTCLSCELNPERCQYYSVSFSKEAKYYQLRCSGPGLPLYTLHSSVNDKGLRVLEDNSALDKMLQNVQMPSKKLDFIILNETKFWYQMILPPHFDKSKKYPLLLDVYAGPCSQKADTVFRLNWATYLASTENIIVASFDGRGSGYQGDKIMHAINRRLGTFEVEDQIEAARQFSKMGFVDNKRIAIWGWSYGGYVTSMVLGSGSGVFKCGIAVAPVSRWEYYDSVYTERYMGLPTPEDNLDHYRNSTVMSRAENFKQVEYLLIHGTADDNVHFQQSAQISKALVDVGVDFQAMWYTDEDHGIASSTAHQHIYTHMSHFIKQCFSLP
Description: flow cytometry on human CD26-transfected CHO cells, antibody 50 nM, goat anti-human IgG-PE. For orientation: A flow cytometer gives signals particle by particle.

Another test deals with goat anti-human IgG. Description: ELISA, goat anti-human IgG coated (control plate), goat anti-human kappa-HRP/ABTS.
Test [4] has as its target T1, Human CD26-Fc fusion protein. Description: ELISA, CD26-Fc coated, purified IgG1 kappa antibody, goat anti-human kappa-HRP/ABTS.

T1 sequence (chain, as listed by the source): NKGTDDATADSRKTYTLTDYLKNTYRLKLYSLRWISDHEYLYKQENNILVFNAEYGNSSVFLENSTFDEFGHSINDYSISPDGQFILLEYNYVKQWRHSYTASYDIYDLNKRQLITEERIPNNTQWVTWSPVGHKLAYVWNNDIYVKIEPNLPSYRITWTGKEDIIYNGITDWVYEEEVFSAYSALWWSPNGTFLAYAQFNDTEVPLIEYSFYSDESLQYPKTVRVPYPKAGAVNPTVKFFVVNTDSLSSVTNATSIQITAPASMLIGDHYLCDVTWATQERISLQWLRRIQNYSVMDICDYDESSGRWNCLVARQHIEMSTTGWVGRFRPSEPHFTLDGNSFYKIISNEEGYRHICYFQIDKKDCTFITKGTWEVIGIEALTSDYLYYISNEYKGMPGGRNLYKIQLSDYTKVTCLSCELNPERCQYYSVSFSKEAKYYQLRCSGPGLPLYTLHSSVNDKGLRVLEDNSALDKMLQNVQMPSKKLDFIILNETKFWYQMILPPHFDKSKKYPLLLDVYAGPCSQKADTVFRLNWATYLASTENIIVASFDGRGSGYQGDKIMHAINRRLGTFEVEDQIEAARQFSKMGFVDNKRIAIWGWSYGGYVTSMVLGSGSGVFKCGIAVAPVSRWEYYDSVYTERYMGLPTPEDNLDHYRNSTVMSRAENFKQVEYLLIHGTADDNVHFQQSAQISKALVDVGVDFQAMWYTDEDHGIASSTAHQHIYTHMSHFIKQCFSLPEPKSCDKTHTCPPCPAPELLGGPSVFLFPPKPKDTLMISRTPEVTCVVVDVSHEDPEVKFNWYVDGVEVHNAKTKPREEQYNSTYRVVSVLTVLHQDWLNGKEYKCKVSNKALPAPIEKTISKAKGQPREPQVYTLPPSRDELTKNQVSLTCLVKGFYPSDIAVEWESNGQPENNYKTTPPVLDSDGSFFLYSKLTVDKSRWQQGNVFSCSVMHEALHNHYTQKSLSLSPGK

B1: Human adenosine deaminase (ADA) (enzyme, UniProt P00813 1-363, looked up)
chain: MAQTPAFDKPKVELHVHLDGSIKPETILYYGRRRGIALPANTAEGLLNVIGMDKPLTLPDFLAKFDYYMPAIAGCREAIKRIAYEFVEMKAKEGVVYVEVRYSPHLLANSKVEPIPWNQAEGDLTPDEVVALVGQGLQEGERDFGVKARSILCCMRHQPNWSPKVVELCKKYQQQTVVAIDLAGDETIPGSSLLPGHVQAYQEAVKSGIHRTVHAGEVGSAEVVKEAVDILKTERLGHGYHTLEDQALYNRLRQENMHFEICPWSSYLTGAWKPDTEHAVIRLKNDQANYSLNTDDPLIFKSTLDTDYQMTKRDMGFTEEEFKRLNINAAKSSFLPEDEKRELLDLLYKAYGMPPSASAGQNL
notes: Bought reagent; also called Human ADA (R&D systems)
On to B1, for which the “IC50 (read off the curve)” value in test [1] is approximately 0.01 nM.

B2: CD26Ab-04A anti-CD26 IgG1 kappa monoclonal antibody (antibody, V domains shown)
VH: EVQLVESGGGLVQPGGSLRLSCAASGFAINNYSIHWVRQAPGKGLEWVASIWPYGGFTSYADSVKGRFTISADTSKNTAYLQMNSLRAEDTAVYYCARFFSSYGDMDYWGQGTLVTVSS
VL: DIQMTQSPSSLSASVGDRVTITCRASQDVSGGVAWYQQKPGKAPKLLIYGTSGLYSGVPSRFSGSGSGTDFTLTISSLQPEDFATYYCQQGGDWPITFGQGTKVEIKR
notes: Used biotinylated in some assays; also called CD26-04A
Broadly, the EC50 (read off the curve) is the midpoint of the concentration-response curve. The low end stands for an effect from little substance, the high end for a need for much substance. As to B2, the figures for the “EC50 (read off the curve)” value (in test [2]; with goat anti-human IgG) were approximately 1 nM and approximately 0.4 nM, respectively. The molecule also came in with an MFI in test [3] of 4360.

B3: CD26Ab-01D anti-CD26 IgG1 kappa monoclonal antibody (antibody, V domains shown)
VH: EVQLVESGGGLVQPGGSLRLSCAASGFTINDSYIHWVRQAPGKGLEWVAWIWPYGGFTYYADSVKGRFTISADTSKNTAYLQMNSLRAEDTAVYYCARFLGSSSIMDYWGQGTLVTVSS
VL: DIQMTQSPSSLSASVGDRVTITCRASQDVNSNVAWYQQKPGKAPKLLIFGSGGLYSGVPSRFSGSGSGTDFTLTISSLQPEDFATYYCQQYSSYPLTFGQGTKVETKR
As for B3, in test [2], the binding result is “binds”. Moreover, in test [3], the MFI came to 1700.

B4: CD26Ab-10B anti-CD26 IgG1 kappa monoclonal antibody (antibody, V domains shown)
VH: B2 VH with A28T, N30S, N31D, F100H, Y103S
VL: B3 VL with N30W, S31G, N32Y, G50A, G53A, S92F, S93N, Y94W, L96I, T106I
notes: Very low production; not biotinylated
For B4, in test [3], the MFI amounted to 105. In addition, in test [4], the binding result is recorded as “no binding (tested: 500000 pM)”.
